assay: soluble fraction after stress (log2 fold change); higher = more stays soluble; pooled small domains, quantitative proteomics; conditions: stress: 50 degC
Outline: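 The stress applied to every library was 50°C. These custom libraries of small protein domains were pooled and measured at high throughput with quantitative proteomics as the read-out. Aggregation propensity is expressed as the base-two logarithm of the fold change in how much of each protein remains soluble. The higher the value, the more of that protein stays in solution.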

| Sequence | soluble fraction (log2) |
| --- | --- |
| HMEKTLAERVNDILAEIKMTKQELAMQLNISRSAVSQYLNGKYSSNPEAIEARLRDFVSSYDRG | -0.0754 |
| HMNADSLIGENIRISERVSNMDQTGMAVVHGQEWTVRTRNDNEIIEPGEEAKILAISGVKLIVEK | -0.119 |
| HMKSTPMYATAIVNIRSKAGTDSEILGKLNPSEEISVISSENGWSKVSYNGKEAYISSNYLSNAKP | -0.175 |
| HMSSTSTKTQNIVHIVKSGETLSAIASKYGVSVDNIKKWNNLSSDKLSIGQKLKINPTTQTSS | 0.245 |
| HMQERQREGFVQQLRGKYSGQVVMRLFPELQGKALGEFMRKFEAQWEDHEAVLAAMEAHEIESRLKVFK | -0.965 |
| HMPDPHSEARNIVLNQLNFMPRSRKELETALAKRNIEADVAKIVLDRFEEIGMVDDAAYAEL | 0.159 |
| HMDREILWTNYVAARKQEFIASSIDTIGAEYLDNRRFWDTQFEREWTIIAERLASGFGLTDDILSIVGSDF | -4.12 |
| HMISKAQLFSEEELTELYRATGYQLENDPEIHREQFEALQAVRAKIEYAVPDVQEKLEQEQNLGQQ | 0.295 |
| HMSTASPEELRQTPERRRLIEYLREHGGHGRTSEIAAALGIDDSTASRLLRRLADNGLIVRTQYGEYTLLQ | 0.0183 |
| HMISSRDAAVIGLVENIQRAQLNAIDESSGFKHLMETYNLESKEIALLVGKSRSYVSNSLRLSK | -0.0196 |
| HMANEGWDIYKLDIRNHKQPNGEYYSEKEIQSTINNTFGKGSFNVDWKKYEKDKEYREKTNYYYFQAKYFV | -0.19 |
| HMVWTAGEVVERIRERVGHPATIRELMQVLTIPPEDRHRFRRRIMQLVEAGELIRIRGNRYGLAD | -2.3 |
| HMTASSYMGMQLGRLEELLKKEVLSLSEKTELKDLISDFDKIPEVVSPKIIGRYLQLKNQHFAKINA | -0.0763 |
| HMDSVSAVRTTHLNSYVLLLEKDGMAAATISRYIASMKGFFEYLFREHMIEEDPAFTLKPPKV | -0.0799 |
| HMSVPEAAERAIDVAQMRRALGELSPEQQRVLELAYFGGLTRQEIARATGTPLGTVHTRARLGLQNLRARL | -0.299 |
| HMQDTQAEEGETLLDALRRIHPESSTGTLRRMLTQGRVQLDGDSVHAAKTVLSAGQRVEVVAR | 0.0446 |
| HMLIVLKPNVSQEEIDHIVDKIRSLSLEPHVSTGVQRTIITVIGDEDVIREQPLEALAGVESVKSILKP | -0.0145 |
| HMEELPIIVAQRFLNIFRQLHIFSDERREAFNKMLLELPPEVKSIFQSLPGGTPLQEYMEDLEQKSK | -0.055 |
| HMGPEAFPVPYVVDIELDRAIYVIEQSGFIVGQKLEANDNNVPRGFVISQNPPAGTKLGPESIVDLVVSS | -0.519 |
| HMGDIQFMEYRINHSSGWIGKNISDFAAVSKNLVILIKRGQDVVIPRGPTAIMEDDVLVLHA | -1.6 |
| HMLDVGDQLVKKLKDNDSLDFHFVNSKEANKGLKDGDYYMVITIPSNFSKNATTLLDKNPKKMVLNYTTNP | 0.0441 |
| HMTQHDIVPLMLKMVDVLTQFVELDIPFLQQERQTRLAALNAMMGRADVSLAEKYRRIMEAYQVETEYG | -0.0938 |
| HMESDRVAHVVAPGETLFSISGKYGIGMGELVAANPVLESRPPRTGDTLLIRLPENPLPAETDAETLS | 0.121 |

| Sequence | soluble fraction (log2) |
| --- | --- |
| HMGSRAEAKEFLQTMLADGRQLATDMEEARQAHDIADRTLRRARKELNVQVYRDGNAWYWELPTPIK | -0.0501 |
| HMKDRNISSSVLEILSKDPDHTYNYKQIAALLGVKDAFIRKRIVTLLAQLAKDGHLDEISRGKYQIK | -1.02 |
| HMRPQELSSLNTNQMRLYNSLPEAFITAEAKDIADKLRYSERSLFRFLNESNLFTKTEHGSYAKKA | 0.133 |
| HMALMLGGLIVYLNTTAPRDDIDLIELSKDTKAMAAFGNKLASPDYNGKQFALDWHELSRDEIMSKYFS | -0.987 |
| HMRGADNAASILKEVGPHPEDGKPITVRSGRYGPYVKHGTTNATLPKDIKPEEITLDEAIALINERVAKG | -0.243 |
| HMITKAIELAEEAEKETVWLGVWEHNHPAQKFYQSLGFVKTDEHDFYMGNERHTDYTMTKQLK | -0.138 |
| HMKSFIWKQYTVQITKKNVKNTNVRIKRDNPHVILMSIPYSATYKAGLLALETPHIRHWLDNYERKLKQ | -1.48 |
| HMTETIPVSERLFRYLFEEKGKRVQKIQQTSHARVRMERSPYSVVVSGTKDAVEAAMESLKATEKELLEA | 0.15 |
| HMKRGDAYASEMIARLKEAHLIVMEGTLYPLLTRLKNDGLLSYRWEESTQGPPRKYYSITPVG | 0.424 |
| HMFISVDGLIHMGRTHLVILGGVEFARGDMIPETGEVVKSIGADSVVLELPDTGMRRTLNFV | -2.92 |
| HMHVLNEEYYNRIKAIQFTMNHDDGNSLNDIEKSDIILLGVSRTSKTPTSIYLANRGLRTSNIPLINEK | -0.326 |
| HMEDEISLGAINVPRGSVIVTAGGARLVEGSDYTVDYYSGTVKILNKSLLDAGTPINVSLET | 0.0198 |
| HMVTEKNALTIEIEDLTKRFGNQRESLLPILQEVQLKHGHISDFAQQEIARLLDIHPVEVYGVVTFFSFLS | -2.21 |
| HMDPGPVLISAQVLDDLEAIRRDGSSNMLDWPAVARLAEVMGMDRTAAWVRTHHREYSAGIFRGFASD | -1.68 |
| HMLTAPMPGIVTEILVKEGQRVRSGQPLMILEAMKMEHQVTAPKSGQIEKIYFSEGEKVDMGSDLLSIS | 0.181 |
| HMKPVYNKVEIPRGGEYALVLSDGTKVHLNSMSSLRFPVAFTTGKREVELQGEAYFEVSKTGQPFIVNV | -0.0523 |
| HMTAIKAGDLVKITGTKYYGGQTIPGWVKNQNWYVQEVSGDRAVINKNESGTNAIMSPIRVSDLTPVS | 0.183 |
| HMISEAEGTILQLLKEADGTLPFTYKSDADEIKKVFGMSKKNFKRTLTELIEAKKIQLLDDAIVL | -0.459 |
| HMEGIAYDINTAPEHIDLKAEDMMATFNIGKTALWRWVKQKILPPPYEYRSQAAHWTIGQIRDWKTA | -0.0672 |
| HMRPTYRTRLEVLINNPAISGRDLDFAQSLLSYYERKGRLSAGRVKWVTTLEERYSPENLAASAAK | -0.828 |
| HMESPELIHILKEAEWQIWQQIQGLPEKQRIAMTLFAMDDLSYQEIADVMKVSVSAIESLLFRARTQLKKY | -0.601 |
| HMTGDIIKQERKKKNLTQIELAKKVGISRNALINYEAGTRIPPISVQLKLADVLGIDILDLK | -0.299 |
| HMTQQYVEWKVYNVTTIKNKYGFRVKLIFQDGSDATQQKGGFTSKKAAEQARTEVIGQLYSNTYVVY | -4.49 |

| Sequence | soluble fraction (log2) |
| --- | --- |
| HMIDFDEQGNLWVHEMGPRHGDELNLIEKARNYGYPTVSQGDHYSGVKISNHEDIPIFKSPEKAWVPAISP | -0.0541 |
| HMSALAQDGDLVQLQGAGYKSHILRLKAGEVLQTHRGVIQHDAVIGQPWGARLQSHTGSPFYLFQPGLADL | -0.522 |
| HMAPEVTVHDGSIVVRGHVGGVTVYDESGRQIASVQSRGAVAIPVPAGHTYLYIVKPEGKPAIKVRAAH | 0.0927 |
| HMTEDTPIIVERVVADIDENVVAIVRKFKDAFKSITAQREIKKKLRSILWVNYQIKDQEVFDKAYQYIEMY | 0.0204 |
| HMQAPHLALSPREFQVLQGLLAGDALDIIAERLHLSAKTVSNHQTLIRQKLGVGNAVELLRYAQLHRL | -2.15 |
| HMNENYNLSKREKEVLDLLVNGKSYKVIATELAISYETVHSHIKKIYHKLHVSSIGEAVSKTIKQKIL | -1.58 |
| HMYHADLIGLEARSTAGDKLGEVNAVYNFGAGDLIEIKMTDGNLEMLPFTRQYVPTVSIKDGFIIVQM | -0.628 |
| HMQQIAVDLSEFKPRLMRDMSSMLAGLYTHDLDLSSLDFSKVANFTFMFRGAIITGTLKMPKI | 0.00375 |
| HMNIKYDFPTNSPLEMMRNLFDSNSQIINDLKDGFAMANSLNEQGLANFFAERIDKHQFWSWQLSASL | -0.399 |
| HMNQRQKQLLSILEQQGDWMKGKALATLLAVSDRTIRSDIEKINREVEGSILSHPHKGYLLSVENRQIAET | 0.256 |
| HMHPEPDPVLFIDGKEYPYDKLSELDETRVQSMTILPKKSAVKKYGDKYANRSIMEITLKKEN | 0.0957 |
| HMALQDKYKELTDAATAAGVTDLQVREQDNVLYIDGTAPSGAVKDQLWAIYDKIDPNFVSGDLVLNVNVD | 0.0655 |
| HMERMTSTEILTRDFLTTNSKIVKKSTIEELSEIIHVSPATIIRTVKKMGYSGFSEYKNELINQ | -0.06 |
| HMPPPVDLDKKGYKLRGIVLEDGRSAAFVFVPAEKRVVVLRENASGPVRLLETGMRRIRLQTPEGAGYLEL | -0.724 |
| HMSTPLVATLRKRIIDGHYPPGERLAEIPVAEAFGVSRTPVRLAFRTLEQEGLLEKAGKRGYAVRA | 0.0325 |
| HMSDKLTLPVQINGVFRYTIEINPSMQKDEIIDLVKNEERTAKYKQDKEIKNVIVVPGKIVNIII | 0.0263 |
| HMVREVGYNAFLAMLDSGAVKEVARDESEGQITFLATDEKGKERVYKTGIWPDDTLTERLNTAGVEFA | 0.178 |
| HMTTTPAERQRTILRSLNRVDPVSVDALARLTGVSVVTIRRDLSDLASRDLIRRVHGGALLPTR | -0.917 |
| HMEDKFEYQGELKSLIEPTSFSELVSALNVRDTLQAIIDFAMREEDTSGYEELKVRQNDYIQEYLNSIGNF | -1.04 |
| HMESLSHRQKSIVDWVQKNGYASIERMAEQFEVSAQTIRRDVIELSERRILQRHHGGASLPAG | -0.0143 |
| HMYINVQNARTIASFRSSLWRMHRDFTNQGYITADGLKTFLEMGKLYEDAGGNDIYHSKLLPEITALEIKY | -0.76 |
| HMQQTAEDWKNKGDSLTAQSEYVEAIAAYDEAIRLDPNYAPAWSNKGNALKNLGEYYKAIQAYDEAIRL | 0.198 |
| HMKMPNGYGSVYKLSGNRRKPWAARVTDGWVNDTKTKKSKQKYKFIGFYETRKEALLALADYNANP | -1.43 |
